From patent US20240101959A1, “USE OF IL-2R-BETA-GAMMA AGONIST PEPTIDES IN CELL MANUFACTURING” (MEDIKINE, INC., priority 2022, published 2024)
Read-outs that look alike come from different tables or passages of the source.

T1: IL-2Rβ (Homo sapiens, UniProt P14784)
T1 sequence (P14784 27-551): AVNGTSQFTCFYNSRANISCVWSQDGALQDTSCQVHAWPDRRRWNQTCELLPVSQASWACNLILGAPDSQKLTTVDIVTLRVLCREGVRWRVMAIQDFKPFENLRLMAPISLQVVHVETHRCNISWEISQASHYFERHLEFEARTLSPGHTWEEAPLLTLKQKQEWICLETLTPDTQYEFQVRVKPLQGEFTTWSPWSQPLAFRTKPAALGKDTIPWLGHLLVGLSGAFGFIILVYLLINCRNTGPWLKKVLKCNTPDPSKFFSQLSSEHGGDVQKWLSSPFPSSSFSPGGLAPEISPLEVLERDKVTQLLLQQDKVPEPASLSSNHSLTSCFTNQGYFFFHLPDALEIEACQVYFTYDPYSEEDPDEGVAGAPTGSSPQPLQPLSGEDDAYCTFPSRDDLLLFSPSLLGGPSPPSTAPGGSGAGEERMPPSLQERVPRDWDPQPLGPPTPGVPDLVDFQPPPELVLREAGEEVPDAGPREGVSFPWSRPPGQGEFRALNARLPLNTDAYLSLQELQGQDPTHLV

T2: hu-IL-2Rβ subunit (Homo sapiens, UniProt P14784)
T2 sequence (P14784 27-551): T1 sequence (P14784 27-551)

T3: hu-IL-2Rγc subunit (Homo sapiens, UniProt P31785)
T3 sequence (P31785 23-369): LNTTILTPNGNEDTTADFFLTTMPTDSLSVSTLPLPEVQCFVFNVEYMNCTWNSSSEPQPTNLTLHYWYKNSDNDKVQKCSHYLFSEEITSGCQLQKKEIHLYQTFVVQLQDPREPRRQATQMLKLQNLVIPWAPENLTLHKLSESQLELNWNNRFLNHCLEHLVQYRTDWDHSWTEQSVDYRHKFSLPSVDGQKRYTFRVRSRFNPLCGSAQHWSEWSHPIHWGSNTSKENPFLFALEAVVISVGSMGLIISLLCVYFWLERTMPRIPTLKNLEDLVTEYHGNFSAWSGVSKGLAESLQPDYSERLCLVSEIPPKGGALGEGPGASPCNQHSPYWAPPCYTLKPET

T4: hu-IL-2Rγc subunit (human), P31785
T4 chain: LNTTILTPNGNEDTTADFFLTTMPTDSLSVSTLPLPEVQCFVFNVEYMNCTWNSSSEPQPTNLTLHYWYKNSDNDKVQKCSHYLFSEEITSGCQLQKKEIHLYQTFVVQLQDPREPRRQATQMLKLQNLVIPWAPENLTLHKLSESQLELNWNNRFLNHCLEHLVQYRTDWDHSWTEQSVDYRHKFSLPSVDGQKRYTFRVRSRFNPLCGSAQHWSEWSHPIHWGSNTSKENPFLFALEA

T5: hu-IL-2Rγc subunit (human, UniProt P31785 23-262, limits assumed)
T5 sequence (looked up): T4 chain


How the values were obtained:
IL-2Rβ = biological target: T1, IL-2Rβ; test: competition with IL-2 binding to IL-2Rβ
hu-IL-2Rβ subunit = biological target: T2, hu-IL-2Rβ subunit; test: competitive binding at the specific binding site on the hu-IL-2Rβ subunit
Source text: This specific binding site on the hu-IL-2Rβ subunit to which the group of IL-2Rβ ligands bind can be characterized using competitive binding assays as described.

hu-IL-2Rγc subunit [1] = biological target: T3, hu-IL-2Rγc subunit; test: competitive binding at the specific binding site on the hu-IL-2Rγc subunit
[2] = biological target: T4, hu-IL-2Rγc subunit (human), P31785
[3] = biological target: T4, hu-IL-2Rγc subunit (human), P31785
hu-IL-2Rγc subunit [4] = biological target: T5, hu-IL-2Rγc subunit
hu-IL-2Rγc subunit [5] = biological target: T5, hu-IL-2Rγc subunit; test: phage ELISA competition assay

| Molecule | IC50 (hu-IL-2Rγc subunit [4]) | IC50 (hu-IL-2Rγc subunit [5]) | also measured |
| --- | --- | --- | --- |
| N M C L V G D Y W P S C Q I (NMCLVGDYWPSCQI) [SEQ ID NO: 933] | – | – | competition with IL-2 binding to IL-2Rβ (IL-2Rβ): do not bind competitively |
| R S C Y Y K R P R L W C S E (RSCYYKRPRLWCSE) [SEQ ID NO: 931] | – | – | competition with the group of IL-2Rβ ligands for the specific binding site on the IL-2Rβ subunit (hu-IL-2Rβ subunit): does not compete |
| D C S M W E G V E L C W (DCSMWEGVELCW) [SEQ ID NO: 935] | – | – | competition with IL-2 binding to IL-2Rβ (IL-2Rβ): do not bind competitively; competition with the group of IL-2Rβ ligands for the specific binding site on the IL-2Rβ subunit (hu-IL-2Rβ subunit): does not compete |
| R W G D V G D L L M P L (RWGDVGDLLMPL) [SEQ ID NO: 934] | – | – | competition with IL-2 binding to IL-2Rβ (IL-2Rβ): do not bind competitively |
| S L L K C Y N A S T C A S V F (SLLKCYNASTCASVF) [SEQ ID NO: 723] | – | – | competition with the group of IL-2Rγc ligands (SEQ ID NO: 935-940) for the specific binding site on the hu-IL-2Rγc subunit (hu-IL-2Rγc subunit [1]): do not compete |
| Y D C R I A Q V G E L C D L (YDCRIAQVGELCDL) [SEQ ID NO: 932] | – | – | competition with IL-2 binding to IL-2Rβ (IL-2Rβ): do not bind competitively; competition with the group of IL-2Rγc ligands (SEQ ID NO: 935-940) for the specific binding site on the hu-IL-2Rγc subunit (hu-IL-2Rγc subunit [1]): does not compete |
| KVCEMWGGVLLCWN (modifications not checked) [SEQ ID NO 936] | – | – | IC50 [2]: < 100 µM; IC50 [3]: < 10 µM |
| VVCEVFQGVELCWCENEEFT [SEQ ID NO 693] | < 100 µM | < 10 µM | – |
| VTCQEYEGVELCWTVGCAYS [SEQ ID NO 698] | < 100 µM | < 10 µM | – |
| KKIVVCQDWGGVELCWTEDD [SEQ ID NO 708] | < 100 µM | < 10 µM | – |
| RTGVECQDWHGVELCWPVWE [SEQ ID NO 711] | < 100 µM | < 10 µM | – |
| GYGVVCEDFRGVELCWLERK [SEQ ID NO 712] | < 100 µM | < 10 µM | – |
| ILCEEWQGVELCWLEGGGS [SEQ ID NO 714] | < 100 µM | < 10 µM | – |
| VGIECEEWAGVELCWL [SEQ ID NO 715] | < 100 µM | < 10 µM | – |
